assay: yeast display, Sf9 membrane polyspecificity reagent, FACS + sequencing; frameworks hold sequencing errors
Summary of the method: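 Galactose induction of a Saccharomyces cerevisiae BJ5465 synthetic nanobody display library ran 36–48 hours. The cells were then stained for 1 hour at 4 °C with 10% biotinylated, detergent-solubilized Sf9 membrane reagent, pulled down on streptavidin microbeads and FACS-sorted into low and high (top ~1%) gates on expression and reagent-binding fluorescence. Labels for polyreactivity follow the gate of origin.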

Q: With “QVQLVESGGGLVEAGGSLRLSCAASGIIFVSYDMGWYRQAPGKERELVAAINRGGRTYYADSVKGRFTISRDNAKNTVYLQMISLKPEDTAVYYCAAQFHFRPFSWTYDYWGQGTQVSVSS” as the sequence, how does the “polyreactivity (PSR sort gate)” value read?
A: high polyreactivity

Q: Which “polyreactivity (PSR sort gate)” value does the source give for “QVQLVESGGGLVEAGGSLRLSCAASGLTFYLYDMGWYRQAPGKERELVAAISRRGTSTYYADSVKGRFTISRDNAKNSVYLQMNSLKPEDTAVYYCAADRKVGRDYWGQGTQVTVSS” here?
A: high polyreactivity

Q: Which “polyreactivity (PSR sort gate)” value does the source give for “QVQLVESGGGLVEAGGSLRLSCAASGRIFHANAMGWYRQAPGKERELVAGISRHGGRTYYADSVKGRFTMSRDNAKNTVYLQMNSLNPEDTAVYYCNALDWQYKELDYYWGQGTQVTVSS” here?
A: high polyreactivity

Q: For “QVQLVESGGGLVEAGGSLRLSCAASGRTFFSNAMVWYRQAPGKERELVAAINRGGSTYYADSVKGRFTSSRDNAKNTVNLQMNSLKPEDTAVYYCAAGYWSKNSIHYYYWGQGTQVTVSS”, which “polyreactivity (PSR sort gate)” value is on record?
A: high polyreactivity

Q: With “QVQLVESGGGLVEAGGSLRLSCAASGSTFRWYAMGWYRQAPGKERELVAAISRSGASTYDSDSVKGRFTISRDNAKNTVYLQMNSLKPEDTAVYYCAAKQRTKGDYWRQGTQVTVSS” as the sequence, how does the “polyreactivity (PSR sort gate)” value read?
A: high polyreactivity

Q: With “QVQLVESGGGLVEAGGSLRLSCAASGSTFSVNAMGRYRQAPGKERELVAAISYRGGSTYYADSVKGRFTISRDNAKNTVYFQMNSLKPEDTAVYYCNAQRYRPGYWYDYWGQGTQVTVSS” as the sequence, how does the “polyreactivity (PSR sort gate)” value read?
A: high polyreactivity

Q: With “QVQLVESGGGLVEAGGSLRLSCAASGSTFTYYAMGWFRPAPGKERELVAAISSSGTSTYYADSVKGRFTLSRDNEKNTVSLQLNSLKPEDPAVYYCAADYYHTRGEADYEYAYWGKGTQVTVSS” as the sequence, how does the “polyreactivity (PSR sort gate)” value read?
A: low polyreactivity

Q: For “QVQLVESGGGLVEAGGSLRLSCAASGSTVWRYAMGWYRQAPGKERELVAAISWNGGSTYYADSVKGRFTISRDNAKNTVYLQMHSLKPEDTAVYYCARGYSWSVGYPRVQDMDYWGQGTQVTVSS”, which “polyreactivity (PSR sort gate)” value is on record?
A: high polyreactivity

Q: Which “polyreactivity (PSR sort gate)” value does the source give for “QVQLVESGGGLVEAGGSLRLSCAASVRTFRYYDMGWFRQAPGKQWELVAAITARGGSTYYADSVKGRFTISRDNEKNTDYLQMNSQKPEDTAVYYCNAYPLQIFYLGNRQYNYWRQGTQVTVSS” here?
A: high polyreactivity

Q: With “QVQLVESGGGLVEAGGSLRLSCADSGRIFLRNAMGWSRQAPGKERELVAAINRGGRTNYADSVKGRFTISRDNAKNTVYLQMNSLKPEDTAVYYCATERESPGYTEYDSWGQGTQVTVSS” as the sequence, how does the “polyreactivity (PSR sort gate)” value read?
A: low polyreactivity

Q: For “QVQLVESGGGLVEAGGSLRLSCADSGRTFGSYTMGWYRQAPGKEREWVAAITSGGRTNYADSVKGRFTISRDNAKNTVYLQMNSLKPEDTAVYYCAPGWRGGRYRYFAYDYWGQGTQVTVSS”, which “polyreactivity (PSR sort gate)” value is on record?
A: high polyreactivity

Q: For “QVQLVESGGGLVEAGGSLRLTCEASGSIISYYVMGWYRQAPGKERELVAAISSSGGRTYYADSVKGRFTISRDNSKNTVYLQMNSLKPDDNAVYYCAARDRPSPYYYWGQGTQVNVSS”, which “polyreactivity (PSR sort gate)” value is on record?
A: high polyreactivity

Q: With “QVQLVESGGGLVHAGCSLRLSCAASGLIFGSYSMGWYRQAPGKERELVAAISRSGGSTYYADSVKGRFTISRDNAKNTVYFLMNSLKPEDTAVYYCAARGYPLGIGRIKRNYWGQGKQVTVSS” as the sequence, how does the “polyreactivity (PSR sort gate)” value read?
A: high polyreactivity

Q: Which “polyreactivity (PSR sort gate)” value does the source give for “QVQLVESGGGLVHAGCSLRLSCAATGIIFAWYVMGWYRPAPGKERELVAAITQSGGSTFYADSVKGRFTISRDNAKNTVYLQMNSLKPEDTAVYYCNTEDFFNVPEMDSWGQGTQVTVSS” here?
A: low polyreactivity

Q: With “QVQLVESGGGLVHAGGFLRLSCAASGRIFRWNAMGWYRQAPGKERELVAAISWNGGRTYYADSVKGRFTISRDNAKNRVYFQMNSLKPEDTAVYYCAAPHSVPDLHSGDYWGQGTQVTVSS” as the sequence, how does the “polyreactivity (PSR sort gate)” value read?
A: low polyreactivity

Q: For “QVQLVESGGGLVHAGGPLRLSCAPSGFIFRGYAMGWYRQAPGKEREFVAAISGSGGSTYYADSVKGRFTISRDNAKNTVFLQMNSLKTDDTAVYYCNARFWGVWGGYDYWGQGTQVTVSS”, which “polyreactivity (PSR sort gate)” value is on record?
A: high polyreactivity

Q: With “QVQLVESGGGLVHAGGRLRLRCAASGSIFGYYAMAWYRHAPGKETELVAAISRRGGRTYYADSVKGRFTISRDNAKNTVYLQMNSLKPEDTAVYYCAKDRYYSELQYPYYRGDYWGQGTQVTVSS” as the sequence, how does the “polyreactivity (PSR sort gate)” value read?
A: high polyreactivity

Q: Which “polyreactivity (PSR sort gate)” value does the source give for “QVQLVESGGGLVHAGGSHRLSCAASGLIFYDNMGWYRQAPGKERELVAAISSSGGSTSYADSVKGRFTISRDNAKNTVYLQMNSLKPEDTAVYYCAADSYPAYLGFVGFDYWGQGTQVTVSS” here?
A: low polyreactivity

Q: With “QVQLVESGGGLVHAGGSIRLSCAASGRIFDYNVMGWYRQAQGTERELVAAISWDGDSTYYADSVKGRFTISRDNAKHTVYLQKNSLKPEDTAVYYCNRVEGRTRWADEMNYWGQGTQVTVSS” as the sequence, how does the “polyreactivity (PSR sort gate)” value read?
A: low polyreactivity

Q: Which “polyreactivity (PSR sort gate)” value does the source give for “QVQLVESGGGLVHAGGSLLLSCAASRFIFASNAMGWYRKAPAKERELVAAISSSGGRTYYADSVKGRFTISRDNAKNSVYLQMNSLKPEDTAVYYCAADWLVTYDYWGQGTQVTVSS” here?
A: high polyreactivity

Q: With “QVQLVESGGGLVHAGGSLRIICAASGRIFYIYAMGWYRQAPGKERELVAAITKSGGSTTHYADSVKGRFTISRDNAKNTVYLQMNSLKPEDTEVYYCAVDARYSRSKYGYWGHGTQVTVSS” as the sequence, how does the “polyreactivity (PSR sort gate)” value read?
A: high polyreactivity

Q: With “QVQLVESGGGLVHAGGSLRLRCAASGSIFYDNAMGWYTQAPWKERELVASIRWSGDSTYYADSVKGRFTISRDNAKNTVYLQMTSLKPEDTAVYYCAADPVEPYFTAIAYGYWGQGTQVTVSS” as the sequence, how does the “polyreactivity (PSR sort gate)” value read?
A: low polyreactivity

Q: For “QVQLVESGGGLVHAGGSLRLSCAACGRIFSRNAMGWYRQAPWKERELVAAITWRGGSTYYADSVKGRFTSSRDNAKNTVYLQMNSLKPEDTAVYYCNRDYRQYGYAYSGRFYWGHGTQVTVSS”, which “polyreactivity (PSR sort gate)” value is on record?
A: high polyreactivity

Q: Which “polyreactivity (PSR sort gate)” value does the source give for “QVQLVESGGGLVHAGGSLRLSCAASARIFIAYMAWYRQAPGKERELVAAIDSGASTYYADSVKGRFTISRDNANNTVYLQMNSLKPEDTAVYYCAADVVYDYGGMDYWGQGTQVTVSS” here?
A: low polyreactivity

Q: Which “polyreactivity (PSR sort gate)” value does the source give for “QVQLVESGGGLVHAGGSLRLSCAASGFIFARYAMGWYRQAPGKERELVAAINLSGGSTYYADSVKGRFTISRDNAKNTVYLQMNSLKPEDTAVYYCAATDPPYDAFEAKIDYQDFDYWGQGTQVTVSS” here?
A: low polyreactivity

Q: Which “polyreactivity (PSR sort gate)” value does the source give for “QVQLVESGGGLVHAGGSLRLSCAASGFILTGNAMGWYRQAPGKERELVAAITSGGRTYYADSVKGRFTISRDNAKNTVYLQMNSLKPEETAVYYCAARRRWSQTPFDYWGQGTQVTVSS” here?
A: high polyreactivity

Q: For “QVQLVESGGGLVHAGGSLRLSCAASGFTFRWYAMGWYRQAPGKERELVARIRGGGSTNYADSVKGRFTISRDNAKNTVYLQMNSLKPEDTAVYYCNTAYPWPPVKYDYWGQGTQVTVSS”, which “polyreactivity (PSR sort gate)” value is on record?
A: high polyreactivity

Q: With “QVQLVESGGGLVHAGGSLRLSCAASGFTLHQYTMGWYRQAPGKERELVAAISDRGTRTYYADSVKGRFTISRDNAKNTVYLQMNSLKPEDPAVYYCAAYIAGVTGGSGYYYWGKGTQVTVSS” as the sequence, how does the “polyreactivity (PSR sort gate)” value read?
A: high polyreactivity

Q: With “QVQLVESGGGLVHAGGSLRLSCAASGIIFGVYAMGWYRQAPGKERELVAAISWSGGSTYYADSVKGRFTISRDNAKNNVYLQMNSLKPEDTAVYYCAADAYPHEDYYWGQGNQVTVSS” as the sequence, how does the “polyreactivity (PSR sort gate)” value read?
A: high polyreactivity

Q: Which “polyreactivity (PSR sort gate)” value does the source give for “QVQLVESGGGLVHAGGSLRLSCAASGIIFQYYLMGSYRPAPGKERELVAAIDKSGGSTYYADSVKGRFTISRDNAKNTVYLQMNSLKPEDTAVYYCAATSYAHKYYGYFGAIKYEYWGQGTQVTVSS” here?
A: low polyreactivity

Q: Which “polyreactivity (PSR sort gate)” value does the source give for “QVQLVESGGGLVHAGGSLRLSCAASGLTFKRYAMGWSRQAPGKERELVASITGNGGSTYYADSVKGRFTISRDNAKNTVYSQMNSLKPEDTAVYYCNARRYVRTSQQPLYDYWGQGTQVTVSS” here?
A: high polyreactivity

From the nanobody polyreactivity screen of Harvey et al. (2022)
